This note sets out measurements from publication PMC9633773, “Discovering cell-active BCL6 inhibitors: effectively combining biochemical HTS with multiple biophysical techniques, X-ray crystallography and cell-based assays” (Scientific Reports, 2022).

The target in the test is Trx-6His-HRV3C-BCL6 (Thioredoxin-6His-tagged BCL6 BTB, uncleaved) (human), P41182. Kind of test: AlphaScreen or HTRF; TR-FRET competition: 1 or 10 nM Trx-6His-BCL6 BTB, 300 nM BCOR-A633, 0.5 or 1 nM anti-6His-Terbium cryptate; 25 mM Hepes pH 8, 100 mM NaCl, 0.05% Tween20, 0.5 mM TCEP, 0.05% BSA; 2 h at room temperature.

B1: unlabelled BCOR peptide (17 residue BCOR peptide) (peptide)
chain: RSEIISTAPSSWVVPGP
modifications: not checked
On to B1, for which the IC50 stood at 8 µM.
